This passage reports Ho/Con_2aR and He/Con_2aR results from patent US20180155451A1 (published 2018).

First the molecules themselves.
T1: FcγRIIa R (human, UniProt P12318 34-217)
T1 construct: extracellular domain; Soluble extracellular domain with C-terminal His tag, expressed in FreeStyle293 cells; also called FcgRIIa R; FcγRIIa type R; not shown: His tag attached to the C terminus
T1 sequence (looked up): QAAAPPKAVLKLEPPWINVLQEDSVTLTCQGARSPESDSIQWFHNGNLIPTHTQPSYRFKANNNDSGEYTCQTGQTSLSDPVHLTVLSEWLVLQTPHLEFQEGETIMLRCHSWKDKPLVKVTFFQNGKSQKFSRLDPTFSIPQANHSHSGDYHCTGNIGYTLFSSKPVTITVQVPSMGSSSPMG

B1: GpH7-B3 variant S337_14T/GpL16-k0 (antibody, human IgG1, kappa)
heavy: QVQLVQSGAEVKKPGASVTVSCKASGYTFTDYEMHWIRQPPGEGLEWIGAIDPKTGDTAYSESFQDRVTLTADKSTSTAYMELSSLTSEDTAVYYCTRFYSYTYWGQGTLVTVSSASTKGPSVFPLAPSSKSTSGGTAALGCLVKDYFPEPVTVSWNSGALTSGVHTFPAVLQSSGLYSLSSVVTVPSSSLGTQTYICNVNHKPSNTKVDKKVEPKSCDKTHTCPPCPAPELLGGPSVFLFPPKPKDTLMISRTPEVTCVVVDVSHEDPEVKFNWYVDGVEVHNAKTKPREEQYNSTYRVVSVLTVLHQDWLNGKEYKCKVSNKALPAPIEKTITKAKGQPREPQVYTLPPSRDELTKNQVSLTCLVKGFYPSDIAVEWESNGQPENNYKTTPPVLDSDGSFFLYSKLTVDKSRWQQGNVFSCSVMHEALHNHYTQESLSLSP
light: DIVMTQSPLSLPVTPGEPASISCQASESLVHSNRNTYLHWYLQKPGQSPQLLIYKVSNRFSGVPDRFSGSGSGTDFTLKISRVEAEDVGVYYCSQNTHVPPTFGQGTKVEIERTVAAPSVFIFPPSDEQLKSGTASVVCLLNNFYPREAKVQWKVDNALQSGNSQESVTEQDSKDSTYSLSSTLTLSKADYEKHKVYACEVTHQGLSSPVTKSFNRGEC
notes: homodimerized; mutation in both H chains; also called Ho Ab
B2: GpH7-B3 variant T335_09D/GpL16-k0 (antibody, human IgG1, kappa)
heavy: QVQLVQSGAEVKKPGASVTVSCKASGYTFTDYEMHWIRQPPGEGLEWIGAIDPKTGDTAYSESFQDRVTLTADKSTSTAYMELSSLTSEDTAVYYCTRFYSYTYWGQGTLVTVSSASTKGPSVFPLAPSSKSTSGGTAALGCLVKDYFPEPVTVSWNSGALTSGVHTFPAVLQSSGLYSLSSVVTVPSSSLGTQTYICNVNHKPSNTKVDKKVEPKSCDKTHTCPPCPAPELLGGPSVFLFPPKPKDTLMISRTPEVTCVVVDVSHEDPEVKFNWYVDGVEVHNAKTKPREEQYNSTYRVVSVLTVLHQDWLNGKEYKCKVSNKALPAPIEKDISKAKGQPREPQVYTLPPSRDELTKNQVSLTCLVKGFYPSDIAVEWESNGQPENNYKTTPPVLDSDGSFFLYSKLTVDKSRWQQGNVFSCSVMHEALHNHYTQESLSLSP
light: B1 light
notes: as for B1
B3: GpH7-B3 variant T335_04F/GpL16-k0 (antibody, human IgG1, kappa)
heavy: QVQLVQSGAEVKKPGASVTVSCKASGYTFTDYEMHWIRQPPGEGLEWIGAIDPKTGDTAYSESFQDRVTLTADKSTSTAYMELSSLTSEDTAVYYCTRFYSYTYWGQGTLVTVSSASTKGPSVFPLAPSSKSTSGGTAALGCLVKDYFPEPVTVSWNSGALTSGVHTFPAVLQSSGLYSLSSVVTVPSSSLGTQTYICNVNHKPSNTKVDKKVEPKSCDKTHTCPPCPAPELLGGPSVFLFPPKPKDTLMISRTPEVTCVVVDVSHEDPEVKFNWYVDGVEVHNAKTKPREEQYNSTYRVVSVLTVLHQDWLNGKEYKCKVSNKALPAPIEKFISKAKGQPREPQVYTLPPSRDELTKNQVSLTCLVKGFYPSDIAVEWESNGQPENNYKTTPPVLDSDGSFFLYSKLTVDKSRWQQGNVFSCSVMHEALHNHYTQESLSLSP
light: B1 light
notes: as for B1
B4: GpH7-B3 variant T335_08L/GpL16-k0 (antibody, human IgG1, kappa)
heavy: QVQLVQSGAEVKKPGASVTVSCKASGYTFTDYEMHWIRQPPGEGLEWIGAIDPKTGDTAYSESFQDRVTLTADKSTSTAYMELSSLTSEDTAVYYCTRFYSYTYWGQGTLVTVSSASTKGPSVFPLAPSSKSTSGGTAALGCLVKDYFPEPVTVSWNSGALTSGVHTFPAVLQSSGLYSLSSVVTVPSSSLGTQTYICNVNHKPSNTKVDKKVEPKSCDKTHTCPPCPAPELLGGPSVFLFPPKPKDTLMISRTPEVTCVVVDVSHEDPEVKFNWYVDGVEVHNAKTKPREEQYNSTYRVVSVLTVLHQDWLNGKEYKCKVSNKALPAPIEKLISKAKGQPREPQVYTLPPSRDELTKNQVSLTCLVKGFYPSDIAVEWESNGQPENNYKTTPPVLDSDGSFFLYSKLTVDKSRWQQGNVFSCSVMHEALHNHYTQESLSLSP
light: B1 light
notes: as for B1
B5: GpH7-B3 variant T335_19Q/GpL16-k0 (antibody, human IgG1, kappa)
heavy: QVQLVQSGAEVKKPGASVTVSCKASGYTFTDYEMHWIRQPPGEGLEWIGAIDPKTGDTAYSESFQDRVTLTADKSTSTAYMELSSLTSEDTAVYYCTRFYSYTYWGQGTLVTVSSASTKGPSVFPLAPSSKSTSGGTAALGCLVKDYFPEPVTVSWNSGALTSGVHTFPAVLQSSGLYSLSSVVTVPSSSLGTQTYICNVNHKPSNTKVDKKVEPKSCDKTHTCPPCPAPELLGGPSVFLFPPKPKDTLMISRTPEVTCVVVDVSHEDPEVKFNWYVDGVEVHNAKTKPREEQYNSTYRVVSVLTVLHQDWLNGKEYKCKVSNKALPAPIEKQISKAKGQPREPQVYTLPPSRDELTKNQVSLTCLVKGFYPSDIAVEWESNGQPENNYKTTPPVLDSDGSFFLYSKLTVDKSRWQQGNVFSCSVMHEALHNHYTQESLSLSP
light: B1 light
notes: as for B1
B6: GpH7-B3 variant T335_18N/GpL16-k0 (antibody, human IgG1, kappa)
heavy: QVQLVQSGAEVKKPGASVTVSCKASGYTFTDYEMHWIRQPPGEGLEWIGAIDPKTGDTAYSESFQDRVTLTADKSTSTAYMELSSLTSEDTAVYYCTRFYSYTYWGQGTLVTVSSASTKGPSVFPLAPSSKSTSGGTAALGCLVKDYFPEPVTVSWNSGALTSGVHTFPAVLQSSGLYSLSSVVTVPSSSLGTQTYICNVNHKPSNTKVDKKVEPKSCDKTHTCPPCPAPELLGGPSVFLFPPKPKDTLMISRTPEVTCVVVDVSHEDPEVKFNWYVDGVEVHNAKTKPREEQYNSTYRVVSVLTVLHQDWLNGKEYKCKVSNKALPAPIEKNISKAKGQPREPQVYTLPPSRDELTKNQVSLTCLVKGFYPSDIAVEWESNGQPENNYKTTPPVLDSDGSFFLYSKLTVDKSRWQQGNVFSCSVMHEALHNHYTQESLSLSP
light: B1 light
notes: as for B1
B7: GpH7-B3 variant Y296_20W/GpL16-k0 (antibody, human IgG1, kappa)
heavy: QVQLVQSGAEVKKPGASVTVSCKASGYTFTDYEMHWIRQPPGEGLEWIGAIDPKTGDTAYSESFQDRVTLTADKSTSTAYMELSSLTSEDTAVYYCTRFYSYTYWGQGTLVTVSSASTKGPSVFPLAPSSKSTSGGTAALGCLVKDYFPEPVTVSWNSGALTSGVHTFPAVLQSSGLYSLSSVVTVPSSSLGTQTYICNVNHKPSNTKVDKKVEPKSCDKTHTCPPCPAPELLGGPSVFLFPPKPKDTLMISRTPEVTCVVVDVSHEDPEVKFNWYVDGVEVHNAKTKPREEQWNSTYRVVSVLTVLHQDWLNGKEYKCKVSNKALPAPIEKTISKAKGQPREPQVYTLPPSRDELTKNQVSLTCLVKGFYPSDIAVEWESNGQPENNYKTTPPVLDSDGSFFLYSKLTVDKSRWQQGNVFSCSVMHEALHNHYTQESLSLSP
light: B1 light
notes: as for B1
B8: GpH7-B3 variant T335_06M/GpL16-k0 (antibody, human IgG1, kappa)
heavy: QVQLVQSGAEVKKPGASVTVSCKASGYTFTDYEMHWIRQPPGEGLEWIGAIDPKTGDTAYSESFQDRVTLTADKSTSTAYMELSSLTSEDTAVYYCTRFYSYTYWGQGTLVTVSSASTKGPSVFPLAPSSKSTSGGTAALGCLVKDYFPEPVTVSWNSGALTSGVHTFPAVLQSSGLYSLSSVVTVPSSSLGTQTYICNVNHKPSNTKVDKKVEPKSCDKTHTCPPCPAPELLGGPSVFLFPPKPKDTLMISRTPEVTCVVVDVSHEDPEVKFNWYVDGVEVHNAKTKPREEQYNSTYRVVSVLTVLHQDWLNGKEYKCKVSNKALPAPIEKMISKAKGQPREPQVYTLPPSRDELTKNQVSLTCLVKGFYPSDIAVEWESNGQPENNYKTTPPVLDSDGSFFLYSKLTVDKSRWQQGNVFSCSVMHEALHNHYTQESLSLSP
light: B1 light
notes: as for B1
B9: GpH7-B3 variant T335_20W/GpL16-k0 (antibody, human IgG1, kappa)
heavy: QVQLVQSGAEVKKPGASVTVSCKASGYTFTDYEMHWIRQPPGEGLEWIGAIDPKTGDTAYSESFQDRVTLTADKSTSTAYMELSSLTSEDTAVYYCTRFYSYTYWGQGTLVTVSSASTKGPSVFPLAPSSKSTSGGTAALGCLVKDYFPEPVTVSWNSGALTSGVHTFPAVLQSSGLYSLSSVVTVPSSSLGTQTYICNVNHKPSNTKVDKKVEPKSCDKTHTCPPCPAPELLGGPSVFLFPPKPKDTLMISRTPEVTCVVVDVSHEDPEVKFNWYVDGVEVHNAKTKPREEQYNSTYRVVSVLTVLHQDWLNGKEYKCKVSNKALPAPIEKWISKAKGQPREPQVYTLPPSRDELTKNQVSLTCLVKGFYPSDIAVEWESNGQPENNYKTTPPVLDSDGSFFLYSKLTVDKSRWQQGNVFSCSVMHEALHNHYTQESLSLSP
light: B1 light
notes: as for B1
B10: GpH7-B3 variant Y300_04F/GpL16-k0 (antibody, human IgG1, kappa)
heavy: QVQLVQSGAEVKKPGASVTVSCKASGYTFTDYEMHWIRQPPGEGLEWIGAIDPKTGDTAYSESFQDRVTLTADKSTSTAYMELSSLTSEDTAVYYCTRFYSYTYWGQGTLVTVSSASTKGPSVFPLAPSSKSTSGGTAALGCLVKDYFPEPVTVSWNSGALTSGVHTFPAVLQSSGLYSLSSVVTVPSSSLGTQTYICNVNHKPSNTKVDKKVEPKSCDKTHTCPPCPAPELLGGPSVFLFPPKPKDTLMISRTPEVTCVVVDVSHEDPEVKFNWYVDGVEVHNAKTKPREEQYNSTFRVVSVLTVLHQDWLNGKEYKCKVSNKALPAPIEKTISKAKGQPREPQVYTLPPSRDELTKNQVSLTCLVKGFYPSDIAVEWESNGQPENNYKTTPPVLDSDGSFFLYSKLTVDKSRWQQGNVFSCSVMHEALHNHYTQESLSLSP
light: B1 light
notes: as for B1
B11: GpH7-B3 variant T335_16H/GpL16-k0 (antibody, human IgG1, kappa)
heavy: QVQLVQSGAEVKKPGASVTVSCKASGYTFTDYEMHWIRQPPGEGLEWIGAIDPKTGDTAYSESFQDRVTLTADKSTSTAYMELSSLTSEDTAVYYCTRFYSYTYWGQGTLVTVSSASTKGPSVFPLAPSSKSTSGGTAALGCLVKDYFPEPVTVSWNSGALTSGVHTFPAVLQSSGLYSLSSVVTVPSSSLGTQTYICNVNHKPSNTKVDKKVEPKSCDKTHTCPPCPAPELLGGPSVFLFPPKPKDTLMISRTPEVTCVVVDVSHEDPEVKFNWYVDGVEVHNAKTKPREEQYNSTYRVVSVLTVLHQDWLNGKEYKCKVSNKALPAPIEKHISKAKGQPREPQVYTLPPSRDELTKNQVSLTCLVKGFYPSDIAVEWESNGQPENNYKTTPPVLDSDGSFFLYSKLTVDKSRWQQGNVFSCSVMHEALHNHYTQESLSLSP
light: B1 light
notes: as for B1
B12: GpH7-B3 variant V266_06M/GpL16-k0 (antibody, human IgG1, kappa)
heavy: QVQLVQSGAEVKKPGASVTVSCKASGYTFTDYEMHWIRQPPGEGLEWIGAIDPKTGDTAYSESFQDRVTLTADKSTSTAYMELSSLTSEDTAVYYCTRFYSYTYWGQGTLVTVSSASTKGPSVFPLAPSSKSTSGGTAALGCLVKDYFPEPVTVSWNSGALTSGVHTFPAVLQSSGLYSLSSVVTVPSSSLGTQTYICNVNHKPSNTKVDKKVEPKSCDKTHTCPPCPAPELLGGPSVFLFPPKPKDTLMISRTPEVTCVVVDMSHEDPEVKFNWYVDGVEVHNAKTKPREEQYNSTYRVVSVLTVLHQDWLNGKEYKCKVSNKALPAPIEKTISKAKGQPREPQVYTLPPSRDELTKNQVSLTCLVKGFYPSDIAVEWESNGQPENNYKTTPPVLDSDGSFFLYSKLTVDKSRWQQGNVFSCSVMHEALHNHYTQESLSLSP
light: B1 light
notes: as for B1
B13: GpH7-A5/GpH7-B3 variant T335_15Y/GpL16-k0 (antibody, human IgG1, kappa)
heavy 1: not shown
heavy 2: not shown
light: B1 light
notes: heterodimerized; mutation in one H chain only; also called He Ab
B14: GpH7-A5/GpH7-B3 variant T335_06M/GpL16-k0 (antibody, human IgG1, kappa)
heavy 1: not shown
heavy 2: not shown
light: B1 light
notes: as for B13
B15: GpH7-A5/GpH7-B3 variant L328_06M/GpL16-k0 (antibody, human IgG1, kappa)
heavy 1: not shown
heavy 2: not shown
light: B1 light
notes: as for B13
B16: GpH7-A5/GpH7-B3 variant H268_09D/GpL16-k0 (antibody, human IgG1, kappa)
heavy 1: not shown
heavy 2: not shown
light: B1 light
notes: as for B13
B17: GpH7-A5/GpH7-B3 variant K334_03V/GpL16-k0 (antibody, human IgG1, kappa)
heavy 1: not shown
heavy 2: not shown
light: B1 light
notes: as for B13
B18: GpH7-A5/GpH7-B3 variant L328_07I/GpL16-k0 (antibody, human IgG1, kappa)
heavy 1: not shown
heavy 2: not shown
light: B1 light
notes: as for B13
B19: GpH7-A5/GpH7-B3 variant K326_16H/GpL16-k0 (antibody, human IgG1, kappa)
heavy 1: not shown
heavy 2: not shown
light: B1 light
notes: as for B13
B20: GpH7-A5/GpH7-B3 variant L328_04F/GpL16-k0 (antibody, human IgG1, kappa)
heavy 1: not shown
heavy 2: not shown
light: B1 light
notes: as for B13
B21: GpH7-A5/GpH7-B3 variant L328_15Y/GpL16-k0 (antibody, human IgG1, kappa)
heavy 1: not shown
heavy 2: not shown
light: B1 light
notes: as for B13
B22: GpH7-A5/GpH7-B3 variant L328_03V/GpL16-k0 (antibody, human IgG1, kappa)
heavy 1: not shown
heavy 2: not shown
light: B1 light
notes: as for B13
B23: GpH7-A5/GpH7-B3 variant K334_16H/GpL16-k0 (antibody, human IgG1, kappa)
heavy 1: not shown
heavy 2: not shown
light: B1 light
notes: as for B13
B24: GpH7-A5/GpH7-B3 variant K334_14T/GpL16-k0 (antibody, human IgG1, kappa)
heavy 1: not shown
heavy 2: not shown
light: B1 light
notes: as for B13
B25: GpH7-A5/GpH7-B3 variant G236_09D/GpL16-k0 (antibody, human IgG1, kappa)
heavy 1: not shown
heavy 2: not shown
light: B1 light
notes: as for B13

One assay addresses T1, FcγRIIa R. Kind of assay: SPR (Biacore), antibody captured via antigen peptide, FcγRIIa R as analyte; homodimerized antibody. The method, then: (§1) Analysis of interaction between objective antibody and the FcγR was carried out using Biacore T100 (GE Healthcare). HBS-EP+ (GE Healthcare) was used as the running buffer, and the measurement temperature was set to 25° C. Chips produced by immobilizing the antigen peptide by the amine coupling method to a Series S Sencor Chip CM5 (GE Healthcare), or alternatively, chips produced by allowing preliminarily biotinylated antigen peptides to interact with and immobilize onto a Series S Sensor Chip SA (certified) (GE Healthcare) were used. Antibodies of interest were captured onto an antigen peptide-immobilized chip, and allowed to interact to each FcγR diluted with running buffer. To regenerate and repeatedly use the chip, the antibodies captured on the chip were washed off by reacting 10 mM glycine-HCl, pH 1.5.
Take B1: the Ho/Con_2aR is 110 % of control (GpH7-B3/GpL16-k0 = 100).

Take B2: the Ho/Con_2aR is 113 % of control (GpH7-B3/GpL16-k0 = 100).

In the case of B3, the Ho/Con_2aR was 108 % of control (GpH7-B3/GpL16-k0 = 100).

For the molecule B4, the Ho/Con_2aR is 108 % of control (GpH7-B3/GpL16-k0 = 100).

With B5, the Ho/Con_2aR is 102 % of control (GpH7-B3/GpL16-k0 = 100).

On to B6, for which the Ho/Con_2aR is 100 % of control (GpH7-B3/GpL16-k0 = 100).

With B7, the Ho/Con_2aR was 107 % of control (GpH7-B3/GpL16-k0 = 100).

On to B8, for which the Ho/Con_2aR is 107 % of control (GpH7-B3/GpL16-k0 = 100).

For the molecule B9, the Ho/Con_2aR was 101 % of control (GpH7-B3/GpL16-k0 = 100).

Turning to B10, the Ho/Con_2aR is 109 % of control (GpH7-B3/GpL16-k0 = 100).

With B11, the Ho/Con_2aR is 102 % of control (GpH7-B3/GpL16-k0 = 100).

B12: the Ho/Con_2aR was 146 % of control (GpH7-B3/GpL16-k0 = 100).

For the next assay, the target named is T1, FcγRIIa R. Kind of assay: SPR (Biacore), antibody captured via antigen peptide, FcγRIIa R as analyte; heterodimerized antibody. The method, then: as §1
As to B13, the He/Con_2aR is 111 % of control (GpH7-A5/GpH7-B3/GpL16-k0 = 100).

In the case of B14, the He/Con_2aR was 105 % of control (GpH7-A5/GpH7-B3/GpL16-k0 = 100).

In the case of B15, the He/Con_2aR was 115 % of control (GpH7-A5/GpH7-B3/GpL16-k0 = 100).

As for B16, the He/Con_2aR was 149 % of control (GpH7-A5/GpH7-B3/GpL16-k0 = 100).

Consider B17, for which the He/Con_2aR is 117 % of control (GpH7-A5/GpH7-B3/GpL16-k0 = 100).

Regarding B18, the He/Con_2aR is 124 % of control (GpH7-A5/GpH7-B3/GpL16-k0 = 100).

With B19, the He/Con_2aR was 120 % of control (GpH7-A5/GpH7-B3/GpL16-k0 = 100).

As for B20, the He/Con_2aR is 138 % of control (GpH7-A5/GpH7-B3/GpL16-k0 = 100).

Consider B21, for which the He/Con_2aR was 136 % of control (GpH7-A5/GpH7-B3/GpL16-k0 = 100).

Consider B22, for which the He/Con_2aR was 116 % of control (GpH7-A5/GpH7-B3/GpL16-k0 = 100).

Regarding B23, the He/Con_2aR was 109 % of control (GpH7-A5/GpH7-B3/GpL16-k0 = 100).

On to B24, for which the He/Con_2aR was 112 % of control (GpH7-A5/GpH7-B3/GpL16-k0 = 100).

For B25, the He/Con_2aR was 106 % of control (GpH7-A5/GpH7-B3/GpL16-k0 = 100).
